Test results published in patent US20250263500A1.

Molecular target: CD24 (human) (UniProt P25063)
Assay: cell-based or functional assay

Chain of CD24 (human) (P25063 27-59): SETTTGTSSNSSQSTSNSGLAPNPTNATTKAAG

Phagocytosis rate % (A549 tumor cells by human PBMC-derived M2 macrophages, antibody 5 µg/ml): 2.7%
Phagocytosis rate (%) (MCF-7 tumor cells by human PBMC-derived M2 macrophages, antibody 5 µg/ml): 1.3%
Substance: negative control antibody (mouse IgG)
